{
  "source": "paper PMC3534766",
  "biological_target": "FUS-RRM wild type (Homo sapiens, UniProt P35637 278-385)",
  "sequence (P35637 278-385)": "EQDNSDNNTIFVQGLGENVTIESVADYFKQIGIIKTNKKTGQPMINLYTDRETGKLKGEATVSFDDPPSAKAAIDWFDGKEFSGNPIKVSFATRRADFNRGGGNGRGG",
  "experiment": "NMR titration",
  "data": [
    {"binder": "TTAGGGTTAGGGTTAGGGTTAGGG (structured_DNA)", "note": "[24-mer d(TTAGGG)4 (NMR)]", "values": [
      {"measurement": "binding result", "result": "binds"}
    ]}
  ]
}
